From patent US6096529A, “Recombinant α-2,3-sialyltransferases and their uses” (priority 1997, dated 2000)

Assays:
Assay in all cases: Determination of kinetic constants with APTS-labelled acceptors
Type in all cases: biochemical, Neisseria meningitidis
[1] = system: CC(=O)N[C@H]1[C@H](O[C@@H]([C@H](O)[C@H](CNc2cc(S(=O)(=O)O)c3ccc4c(S(=O)(=O)O)cc(S(=O)(=O)O)c5ccc2c3c54)NC(C)=O)[C@H](O)CO)O[C@H](CO)[C@@H](O[C@@H]2O[C@H](CO)[C@H](O)[C@H](O)[C@H]2O)[C@@H]1O; conditions: other: apparent; APTS-labelled acceptor, CMP-Neu5Ac 200 μM, room temperature
Method: (§1) Measurement of Sialyltransferase Activity and Survey of Oligosaccharide Acceptors--FCHASE-labelled oligosaccharides were prepared as described above, while the APTS-labelled oligosaccharides were prepared by reductive amination of reducing saccharides according to the method described by Guttman et at. (Anal. Biochem233:234 (1996)) The Gal-β-APTS acceptor was derived from labelling of lactose; the Gal-α-APTS acceptor was derived from labelling of melibiose; the N-acetyllactosamine (LacNAc) acceptor was synthesized by APTS labelling of chitobiose, followed by enzymatic modification with bovine β-Galactosyl transferase to produce the LacNAc moiety-, the Gal-α-1.4-Gal-β acceptor was enzymatically synthesized from β-Gal-APTS with the α-1,4-galactosyltransferase from N. meningitidis. All of the reductive amination products were purified by gel permeation chromatography on Toyopearl HW4OF (Sigma-Aldrich), 1.5 cm×15 cm column, using water as the eluant. It should be mentioned that all of these molecules have the terminal reducing sugar ring opened in the process of labelling. APTS-saccharides were quantitated by measuring the A455, and using an extinction coefficient of 17160 M^-1 cm^-1 . The TMR-labelled oligosaccharides were prepared as described by Zhao et al. (1994) Glycobiology 4:239-242. For the TMR labelled acceptors we used an extinction coefficient of 80,000 M^-1 cm^-1 for quantitation. The sialyltransferase activity was routinely measured using 0.5 mM FCHASE-N-acetyllactosamine as the acceptor and the assay conditions as described above. For measurement of Km, and kcat values, assays were performed with the APTS labelled saccharides at room temperature. Assays were monitored so that for all acceptor concentrations, no more than 10% conversion to product occurred. The ranges of acceptor and donor concentrations were determined empirically, then a range spanning 0.2Km, up to 5Km, was used to obtain the values. Data were examined using the Grafit™3.0 software package (Erithacus Software, London, UK).
(§2) The reaction mixtures from the FCHASE- and APTS-labelled acceptors were analyzed by capillary electrophoresis performed with a Beckman instruments (Fullerton, Calif.) P/ACE 5510 equipped with a 3 mW Argon-ion laser induced fluorescence detector, λ excitation=488 nm λ emission=520 nm. The Capillary was of bare silica 75 μ X 57 cm, with the detector at 50 cm. The capillary was conditioned before each run by washing with 0.2 M NaOH for 2 min., water for 2 min., and either 20 mM sodium phosphate buffer, pH 7.4 or sodium tetraborate, pH 9.3, 2 min. Samples were introduced by pressure injection for 2-5 seconds, and the separation was performed at 18 kV, 75 μA. Peak integration was performed with the Beckman PACE-Station software (version 1).

[2] = system: CC(=O)N[C@H]1[C@H]([C@H](O)[C@H](O)CO)O[C@](OP(=O)(O)OC[C@H]2O[C@@H](n3ccc(N)nc3=O)[C@H](O)[C@@H]2O)(C(=O)O)C[C@@H]1O; conditions: other: acceptor LacNAc-APTS (0.8 mM) or lacto-N-neotetraose-APTS (0.2 mM)
Method: as §1, §2

[3] = system: O=S(=O)(O)c1cc(NC[C@H](O)[C@@H](O)[C@H](O[C@@H]2O[C@H](CO)[C@H](O)[C@H](O)[C@H]2O)[C@H](O)CO)c2ccc3c(S(=O)(=O)O)cc(S(=O)(=O)O)c4ccc1c2c34; conditions: other: apparent; APTS-labelled acceptor, CMP-Neu5Ac 200 μM, room temperature
Method: as §1, §2

[4] = system: CC(=O)N[C@H]1[C@H](O[C@H]2[C@@H](O)[C@@H](CO)O[C@@H](O[C@@H]([C@H](O)[C@@H](O)CNc3cc(S(=O)(=O)O)c4ccc5c(S(=O)(=O)O)cc(S(=O)(=O)O)c6ccc3c4c65)[C@H](O)CO)[C@@H]2O)O[C@H](CO)[C@@H](O[C@@H]2O[C@H](CO)[C@H](O)[C@H](O)[C@H]2O)[C@@H]1O; conditions: other: apparent; APTS-labelled acceptor, CMP-Neu5Ac 200 μM, room temperature
Method: as §1, §2

[5] = system: CC(=O)N[C@H]1[C@H](O[C@H]2[C@@H](O)[C@@H](CO)O[C@@H](O[C@@H]([C@H](O)[C@@H](O)CNc3cc(S(=O)(=O)O)c4ccc5c(S(=O)(=O)O)cc(S(=O)(=O)O)c6ccc3c4c65)[C@H](O)CO)[C@@H]2O)O[C@H](CO)[C@@H](O)[C@@H]1O[C@@H]1O[C@H](CO)[C@H](O)[C@H](O)[C@H]1O; conditions: other: apparent; APTS-labelled acceptor, CMP-Neu5Ac 200 μM, room temperature
Method: as §1, §2

[6] = system: O=S(=O)(O)c1cc(NC[C@H](O)[C@@H](O)[C@H](O[C@@H]2O[C@H](CO)[C@H](O[C@H]3O[C@H](CO)[C@H](O)[C@H](O)[C@H]3O)[C@H](O)[C@H]2O)[C@H](O)CO)c2ccc3c(S(=O)(=O)O)cc(S(=O)(=O)O)c4ccc1c2c34; conditions: other: apparent; APTS-labelled acceptor, CMP-Neu5Ac 200 μM, room temperature
Method: as §1, §2

## purified recombinant α-2,3-sialyltransferase (Neisseria meningitidis MC58)
[1]
  Km: 67 µM
  kcat: 0.118 s⁻¹
[2]
  Km: 20 µM
[3]
  Km: 168 µM
  kcat: 0.0633 s⁻¹
[4]
  Km: 42 µM
[5]
  Km: 113 µM
  kcat: 0.0383 s⁻¹
[6]
  Km: 139 µM
  kcat: 0.013 s⁻¹
